Literature values, collected in PMC2688729.
pKd: −log10 of the molar value.

Target: thrombomodulin (Homo sapiens) (UniProt P07204)

- pKd: > 9.00
Substance: thrombin (from UniProt P00734)
